# Source: patent US7291458B2, “Leptin-mediated gene-induction” (Vlaams Interuniversitair Instituut Voor Biotechnologie VZW, priority 1998, dated 2007)
# Tested on: PC12 cells
# Test: RDA of PC12 cells transiently transfected with pMET7-mLRlo
# Type: cell-based, rat
# Conditions: leptin-forskolin co-stimulated versus forskolin alone
# Description: To search for genes regulated by leptin in the PC12 cell line, a RDA (representational difference analysis) experiment was performed using a modification of the original method (Hubank and Schatz, 1994). Using this procedure, it is possible to clone amplicons corresponding to transcripts from leptin-forskolin co-stimulated PC12 cells, transiently transfected with pMET7-mLRlo. After three rounds of subtraction/amplification, selectively amplified bands were purified and subcloned in the pCDNA3 or pCR-Blunt vector (Invitrogen). […] Based on this observation, a simple one-tube RT-PCR based procedure was set up to select for PC12 subclones, stably expressing the leptin receptor long isoform (FIG. 2 portion A). One stable clone, PC12-LR8, was chosen for further experiments (FIG. 2 portion B). Individual inserts from the cloned amplicon collection were radiolabeled and leptin-dependent gene regulation was verified and studied in more detail by Northern blot analysis on the PC12-LR8 cell line.
# RDA was used to clone differentially expressed cDNAs from PC12 cells, transiently transfected with the leptin receptor long isoform, or from neuronal differentiated PC12-LR8 cells, which stably express the leptin receptor long isoform. In both cases, cloning was performed using mRNA from cells either stimulated with leptin+forskolin or with forskolin alone. […]
molecule,measurement,value
"leptin: mouse leptin (R&D Systems), ob gene product, used on PC12 cells at 100 ng/ml (protein) VPIQKVQDDTKTLIKTIVTRINDISHTQSVSAKQRVTGLDFIPGLHPILSLSKMDQTLAVYQQVLTSLPSQNVLQIANDLENLRDLLHLLAFSKSCSLPQTSGLQKPESLDGVLEASLYSTEVVALSRLQGSLQDILQQLDVSPEC",induction of rat Pancreatitis Associated Protein I (rPAP I) transcript,strongly induced
